Consider 1 substance from US20130097729A1.

The target in the experiment is whole pea aphid BBMV proteins. The experiment can be described thus: pull-down with whole pea aphid BBMV, anti-GFP western blot, ImageJ band intensities.

In turn, GBP3.1(R8A)EGFP (peptide) had a fold increase in BBMV binding efficiency against GBP3.1-EGFP of 5 fold.
